Experimental findings from patent US20240182582A1 (Janssen / Centocor, published 2024) are described below.

The target in assay [1] is T1, NKGW1 (human NKG2d80-216 extracellular region with N-term hexahistidine tag) (human, UniProt P26718 80-216).
T1 construct: also called human NKG2d (NKGW1)
T1 sequence: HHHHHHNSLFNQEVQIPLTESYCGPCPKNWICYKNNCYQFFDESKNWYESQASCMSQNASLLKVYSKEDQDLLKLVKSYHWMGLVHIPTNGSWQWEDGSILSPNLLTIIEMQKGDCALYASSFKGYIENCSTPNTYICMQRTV
As to the kind of experiment: surface plasmon resonance.

In another assay the target is T2, Cyno NKG2d (NKGW2.001) (cynomolgus monkey, UniProt P61252 80-216, limits assumed).
T2 sequence (looked up): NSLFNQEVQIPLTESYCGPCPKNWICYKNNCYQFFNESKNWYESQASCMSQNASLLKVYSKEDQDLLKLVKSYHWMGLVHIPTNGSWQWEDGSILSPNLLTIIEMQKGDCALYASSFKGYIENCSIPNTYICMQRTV
As to the kind of experiment: surface plasmon resonance.

In a further assay the target is T3, BCMA (UniProt Q02223 1-184, limits assumed).
T3 sequence (looked up): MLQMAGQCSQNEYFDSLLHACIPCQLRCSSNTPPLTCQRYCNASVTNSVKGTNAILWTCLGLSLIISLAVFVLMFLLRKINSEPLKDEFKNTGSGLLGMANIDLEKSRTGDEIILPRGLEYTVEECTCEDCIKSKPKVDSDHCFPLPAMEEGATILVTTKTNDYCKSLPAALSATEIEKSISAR
Description: cell-based or functional assay.

Assay [2] concerns the target NKp46 on NKL cells / NK cells (human, UniProt O76036 22-304). Description: cell-based or functional assay.
Another assay deals with GPRC5d (UniProt Q9NZD1 1-345, limits assumed). Description: cell-based or functional assay.
Chain of GPRC5d (Q9NZD1 whole entry): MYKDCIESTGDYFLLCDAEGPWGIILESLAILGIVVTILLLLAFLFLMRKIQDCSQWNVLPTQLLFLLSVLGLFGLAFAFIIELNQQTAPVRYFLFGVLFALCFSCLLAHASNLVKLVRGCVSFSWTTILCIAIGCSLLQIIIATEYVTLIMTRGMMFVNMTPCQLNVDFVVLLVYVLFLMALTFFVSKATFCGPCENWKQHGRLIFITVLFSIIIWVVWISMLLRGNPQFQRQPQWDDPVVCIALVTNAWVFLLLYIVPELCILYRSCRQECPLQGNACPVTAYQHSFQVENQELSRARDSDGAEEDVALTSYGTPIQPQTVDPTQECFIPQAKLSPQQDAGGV

Chain of NKp46 on NKL cells / NK cells (O76036 22-304): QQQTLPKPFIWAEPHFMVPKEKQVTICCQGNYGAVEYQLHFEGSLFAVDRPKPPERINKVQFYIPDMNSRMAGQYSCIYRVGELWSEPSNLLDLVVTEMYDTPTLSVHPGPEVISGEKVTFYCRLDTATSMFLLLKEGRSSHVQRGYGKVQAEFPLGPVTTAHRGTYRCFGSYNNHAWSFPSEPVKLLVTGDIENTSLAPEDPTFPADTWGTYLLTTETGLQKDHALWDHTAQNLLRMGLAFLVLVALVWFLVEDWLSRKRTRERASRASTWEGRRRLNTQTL

B1: NKGB125 (antibody, human IgG1, V domains shown)
VH: EVQLLESGGGLVQPGGSLRLSCAASGFTFSIYAMTWVRQAPGKGLEWVSIISGSGDHTFYADSVKGRFTISRDNSRNTLYLQMDSLRAEDTAVYYCAKEGKWVQLSHFANWGQGTLVTVSS
VL: SYVLTQPPSVSVAPGQTARITCGGNNIGSKSVHWYQQKAGQAPVLVVYDDSDRPSGIPERFSGSNSGNTATLTISRVEAGDEADYYCQVWDGRSDHVVFGGGTKLTVL
notes: OmniRat hybridoma clone; v-regions cloned into human IgG1 sigma and lambda constant regions; also called NKGB125.002; NKGY1_045_F04
With B1, in assay [1], the affinity, expressed as Kd, was 0.05 nM; the koff came out at 3.85e-05 s⁻¹; the kon was determined as 751000 M⁻¹ s⁻¹. In the assay with Cyno NKG2d (NKGW2.001), this molecule returned a Kd of 0.1 nM, a koff of 5.84e-05 s⁻¹ and a kon of 571000 M⁻¹ s⁻¹.

B2: N46BB4 (bispecific antibody, human IgG1, kappa)
heavy: QLQLQESGPGPVRPSETLSLTCTVSGDSIRSSSYYWGWIRQPPGKGLDWIGSIYYTGSTYYNPSLMSRVTISVDTSKNQFSLKLSSVTAADTAVYYCASPGYSSGWSIDYWGQGTLVTVSSASTKGPSVFPLAPSSKSTSGGTAALGCLVKDYFPEPVTVSWNSGALTSGVHTFPAVLQSSGLYSLSSVVTVPSSSLGTQTYICNVNHKPSNTKVDKKVEPKSCDKTHTCPPCPAPELLGGPSVFLFPPKPKDTLMISRTPEVTCVVVDVSHEDPEVKFNWYVDGVEVHNAKTKPREEQYNSTYRVVSVLTVLHQDWLNGKEYKCKVSNKALPAPIEKTISKAKGQPREPQVYVYPPSREEMTKNQVSLTCLVKGFYPSDIAVEWESNGQPENNYKTTPPVLDSDGSFALVSKLTVDKSRWQQGNVFSCSVMHEALHNHYTQKSLSLSPGK
light: DIQLTQSPSFLSASVGDRVTITCRASQGISSYLAWYQQKPGKAPKLLIYVASTLQSGVPSRFSGSGSGTEFTLTISSLQPEDFATYYCQQLNSYPRMTFGGGTKVEIKRTVAAPSVFIFPPSDEQLKSGTASVVCLLNNFYPREAKVQWKVDNALQSGNSQESVTEQDSKDSTYSLSSTLTLSKADYEKHKVYACEVTHQGLSSPVTKSFNRGEC
chain: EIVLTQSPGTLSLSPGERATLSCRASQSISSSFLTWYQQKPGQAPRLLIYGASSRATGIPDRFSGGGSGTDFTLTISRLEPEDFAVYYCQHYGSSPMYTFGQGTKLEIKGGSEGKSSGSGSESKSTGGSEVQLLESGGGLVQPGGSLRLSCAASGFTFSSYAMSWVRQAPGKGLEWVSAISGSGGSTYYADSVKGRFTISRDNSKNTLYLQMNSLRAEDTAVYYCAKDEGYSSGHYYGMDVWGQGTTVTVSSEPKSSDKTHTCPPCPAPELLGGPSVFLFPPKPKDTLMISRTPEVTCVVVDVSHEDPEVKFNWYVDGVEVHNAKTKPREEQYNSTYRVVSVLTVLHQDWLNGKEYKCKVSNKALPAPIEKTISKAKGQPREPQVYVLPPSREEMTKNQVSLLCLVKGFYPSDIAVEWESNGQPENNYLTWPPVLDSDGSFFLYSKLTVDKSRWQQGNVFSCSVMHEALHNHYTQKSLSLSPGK
Consider B2, for which the “IC50 for BsAb cytotoxicity, H929/GFP target cells with PBMC effectors” value (from here on “IC50 … H929/GFP target cells with PBMC effectors”) with BCMA came out at 0.00153 nM.

B3: N46BB14 (bispecific antibody, human IgG1, kappa, L234A L235A)
heavy: QLQLQESGPGPVRPSETLSLTCTVSGDSIRSSSYYWGWIRQPPGKGLDWIGSIYYTGSTYYNPSLMSRVTISVDTSKNQFSLKLSSVTAADTAVYYCASPGYSSGWSIDYWGQGTLVTVSSASTKGPSVFPLAPSSKSTSGGTAALGCLVKDYFPEPVTVSWNSGALTSGVHTFPAVLQSSGLYSLSSVVTVPSSSLGTQTYICNVNHKPSNTKVDKKVEPKSCDKTHTCPPCPAPEAAGGPSVFLFPPKPKDTLMISRTPEVTCVVVSVSHEDPEVKFNWYVDGVEVHNAKTKPREEQYNSTYRVVSVLTVLHQDWLNGKEYKCKVSNKALPAPIEKTISKAKGQPREPQVYTLPPSREEMTKNQVSLWCLVKGFYPSDIAVEWESNGQPENNYKTTPPVLDSDGSFFLYSKLTVDKSRWQQGNVFSCSVMHEALHNRFTQKSLSLSPGK
light: DIQLTQSPSFLSASVGDRVTITCRASQGISSYLAWYQQKPGKAPKLLIYVASTLQSGVPSRFSGSGSGTEFTLTISSLQPEDFATYYCQQLNSYPRMTFGGGTKVEIKRTVAAPSVFIFPPSDEQLKSGTASVVCLLNNFYPREAKVQWKVDNALQSGNSQESVTEQDSKDSTYSLSSTLTLSKADYEKHKVYACEVTHQGLSSPVTKSFNRGEC
chain: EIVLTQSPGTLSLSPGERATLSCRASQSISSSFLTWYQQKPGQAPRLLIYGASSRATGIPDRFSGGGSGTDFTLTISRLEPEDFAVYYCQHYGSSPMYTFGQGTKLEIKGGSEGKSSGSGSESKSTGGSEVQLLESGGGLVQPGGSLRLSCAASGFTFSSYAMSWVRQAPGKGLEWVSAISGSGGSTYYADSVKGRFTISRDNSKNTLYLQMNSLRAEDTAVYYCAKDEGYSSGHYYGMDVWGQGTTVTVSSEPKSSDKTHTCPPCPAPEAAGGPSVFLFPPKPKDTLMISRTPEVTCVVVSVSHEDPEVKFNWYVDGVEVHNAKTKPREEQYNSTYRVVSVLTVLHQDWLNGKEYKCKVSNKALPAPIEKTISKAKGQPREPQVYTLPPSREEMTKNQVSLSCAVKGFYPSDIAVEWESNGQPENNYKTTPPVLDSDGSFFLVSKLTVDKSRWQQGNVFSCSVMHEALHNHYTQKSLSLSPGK
B3: the “EC50 of cytotoxicity (hypoxia study, PBMC on MM1R/GFP cells, 48-hour endpoint)” value in assay [2] was about 1.19 nM.

B4: N46BB10 (bispecific antibody, human IgG1, kappa)
heavy: QLQLQESGPGPVRPSETLSLTCTVSGDSIRSSSYYWGWIRQPPGKGLDWIGSIYYTGSTYYNPSLMSRVTISVDTSKNQFSLKLSSVTAADTAVYYCASPGYSSGWSIDYWGQGTLVTVSSASTKGPSVFPLAPSSKSTSGGTAALGCLVKDYFPEPVTVSWNSGALTSGVHTFPAVLQSSGLYSLSSVVTVPSSSLGTQTYICNVNHKPSNTKVDKKVEPKSCDKTHTCPPCPAPELLGGPSVFLFPPKPKDTLMISRTPEVTCVVVDVSHEDPEVKFNWYVDGVEVHNAKTKPREEQYNSTYRVVSVLTVLHQDWLNGKEYKCKVSNKALPAPIEKTISKAKGQPREPQVYTLPPSREEMTKNQVSLWCLVKGFYPSDIAVEWESNGQPENNYKTTPPVLDSDGSFFLYSKLTVDKSRWQQGNVFSCSVMHEALHNRFTQKSLSLSPGK
light: DIQLTQSPSFLSASVGDRVTITCRASQGISSYLAWYQQKPGKAPKLLIYVASTLQSGVPSRFSGSGSGTEFTLTISSLQPEDFATYYCQQLNSYPRMTFGGGTKVEIKRTVAAPSVFIFPPSDEQLKSGTASVVCLLNNFYPREAKVQWKVDNALQSGNSQESVTEQDSKDSTYSLSSTLTLSKADYEKHKVYACEVTHQGLSSPVTKSFNRGEC
chain: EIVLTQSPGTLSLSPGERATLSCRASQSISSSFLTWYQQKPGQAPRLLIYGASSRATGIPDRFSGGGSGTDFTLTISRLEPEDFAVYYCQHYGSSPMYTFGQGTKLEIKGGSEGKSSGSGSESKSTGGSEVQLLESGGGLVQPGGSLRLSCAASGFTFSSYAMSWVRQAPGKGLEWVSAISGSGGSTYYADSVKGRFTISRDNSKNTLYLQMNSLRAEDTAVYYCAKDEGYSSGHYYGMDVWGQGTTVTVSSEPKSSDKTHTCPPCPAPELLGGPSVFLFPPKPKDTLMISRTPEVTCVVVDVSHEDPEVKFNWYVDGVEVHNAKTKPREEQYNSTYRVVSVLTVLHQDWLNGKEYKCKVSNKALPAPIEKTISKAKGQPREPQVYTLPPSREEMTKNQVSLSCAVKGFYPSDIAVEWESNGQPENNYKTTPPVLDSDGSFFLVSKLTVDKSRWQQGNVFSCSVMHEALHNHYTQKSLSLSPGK
With B4, the “EC50 of cytotoxicity (hypoxia study, PBMC on MM1R/GFP cells)” value in assay [2] is about 0.07 nM.

B5: NG2BB9 (bispecific antibody, human IgG1, kappa)
heavy: EVQLVQSGAEVKKPGESLKISCKGSGYSFTSYWIGWVRQMPGKGLEWMGIIYPGDSYTRYSPSFQGQVTISADKSISTAYLQWSSLKASDTAMYYCARGGVSASGNYRALDYWGQGTLVTVSSASTKGPSVFPLAPSSKSTSGGTAALGCLVKDYFPEPVTVSWNSGALTSGVHTFPAVLQSSGLYSLSSVVTVPSSSLGTQTYICNVNHKPSNTKVDKKVEPKSCDKTHTCPPCPAPELLGGPSVFLFPPKPKDTLMISRTPEVTCVVVDVSHEDPEVKFNWYVDGVEVHNAKTKPREEQYNSTYRVVSVLTVLHQDWLNGKEYKCKVSNKALPAPIEKTISKAKGQPREPQVYVYPPSREEMTKNQVSLTCLVKGFYPSDIAVEWESNGQPENNYKTTPPVLDSDGSFALVSKLTVDKSRWQQGNVFSCSVMHEALHNHYTQKSLSLSPGK
light: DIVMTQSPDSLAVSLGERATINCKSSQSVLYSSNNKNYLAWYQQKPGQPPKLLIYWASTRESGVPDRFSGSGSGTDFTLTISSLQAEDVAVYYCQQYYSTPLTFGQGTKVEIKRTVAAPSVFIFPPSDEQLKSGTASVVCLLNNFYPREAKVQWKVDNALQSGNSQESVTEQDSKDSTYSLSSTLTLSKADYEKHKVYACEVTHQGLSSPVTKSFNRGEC
chain: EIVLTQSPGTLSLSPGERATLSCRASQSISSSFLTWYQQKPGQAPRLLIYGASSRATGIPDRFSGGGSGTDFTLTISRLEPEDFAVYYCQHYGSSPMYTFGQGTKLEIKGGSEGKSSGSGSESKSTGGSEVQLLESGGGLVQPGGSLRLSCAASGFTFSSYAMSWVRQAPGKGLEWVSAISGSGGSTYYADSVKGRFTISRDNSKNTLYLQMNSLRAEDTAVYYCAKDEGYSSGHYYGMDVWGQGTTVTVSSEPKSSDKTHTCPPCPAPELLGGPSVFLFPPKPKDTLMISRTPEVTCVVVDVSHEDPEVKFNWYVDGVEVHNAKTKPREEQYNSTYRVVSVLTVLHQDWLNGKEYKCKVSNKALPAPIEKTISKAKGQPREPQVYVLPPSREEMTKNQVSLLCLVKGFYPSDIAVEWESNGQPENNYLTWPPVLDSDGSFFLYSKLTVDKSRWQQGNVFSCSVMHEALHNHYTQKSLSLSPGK
Regarding B5, the “IC50 … H929/GFP target cells with PBMC effectors” value in the assay with BCMA is 0.00722 nM.

B6: NG2GB24 (bispecific antibody, human IgG1, kappa)
heavy: EVQLVQSGAEVKKPGESLKISCKGSGYSFTSYWIGWVRQMPGKGLEWMGIIYPGDSYTRYSPSFQGQVTISADKSISTAYLQWSSLKASDTAMYYCARGGVSASGNYRALDYWGQGTLVTVSSASTKGPSVFPLAPSSKSTSGGTAALGCLVKDYFPEPVTVSWNSGALTSGVHTFPAVLQSSGLYSLSSVVTVPSSSLGTQTYICNVNHKPSNTKVDKKVEPKSCDKTHTCPPCPAPELLGGPSVFLFPPKPKDTLMISRTPEVTCVVVDVSHEDPEVKFNWYVDGVEVHNAKTKPREEQYNSTYRVVSVLTVLHQDWLNGKEYKCKVSNKALPAPIEKTISKAKGQPREPQVYVYPPSREEMTKNQVSLTCLVKGFYPSDIAVEWESNGQPENNYKTTPPVLDSDGSFALVSKLTVDKSRWQQGNVFSCSVMHEALHNHYTQKSLSLSPGK
light: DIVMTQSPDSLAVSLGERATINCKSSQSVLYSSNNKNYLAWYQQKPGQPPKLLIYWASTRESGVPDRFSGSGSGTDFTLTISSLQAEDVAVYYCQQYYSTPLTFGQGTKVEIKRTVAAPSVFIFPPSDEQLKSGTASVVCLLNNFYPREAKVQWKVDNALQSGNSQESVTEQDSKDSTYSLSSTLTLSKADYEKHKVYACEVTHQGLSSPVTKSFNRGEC
chain: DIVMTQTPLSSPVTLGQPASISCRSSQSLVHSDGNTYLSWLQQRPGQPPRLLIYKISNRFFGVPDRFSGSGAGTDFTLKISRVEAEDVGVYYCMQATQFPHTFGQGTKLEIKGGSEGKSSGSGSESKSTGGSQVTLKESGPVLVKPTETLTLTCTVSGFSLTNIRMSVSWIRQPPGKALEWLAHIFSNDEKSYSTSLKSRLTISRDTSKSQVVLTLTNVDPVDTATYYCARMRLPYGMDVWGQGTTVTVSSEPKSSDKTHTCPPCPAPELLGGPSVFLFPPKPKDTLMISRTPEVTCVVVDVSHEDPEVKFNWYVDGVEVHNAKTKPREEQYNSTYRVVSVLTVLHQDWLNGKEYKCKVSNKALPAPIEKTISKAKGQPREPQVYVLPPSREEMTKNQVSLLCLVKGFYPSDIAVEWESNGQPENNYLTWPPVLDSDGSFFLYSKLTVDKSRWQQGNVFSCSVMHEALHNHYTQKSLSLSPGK
For B6, the “IC50 … H929/GFP target cells with PBMC effectors” value with GPRC5d was 0.0144 nM.

B7: NKGB83 (antibody, human IgG1, V domains shown)
VH: EVQLVQSGAEVKKPGESLKISCKGSGYSFTSYWIGWVRQMPGKGLEWMGIIYPGDSYTRYSPSFQGQVTISADKSISTAYLQWSSLKASDTAMYYCARGGVSASGNYRALDYWGQGTLVTVSS
VL: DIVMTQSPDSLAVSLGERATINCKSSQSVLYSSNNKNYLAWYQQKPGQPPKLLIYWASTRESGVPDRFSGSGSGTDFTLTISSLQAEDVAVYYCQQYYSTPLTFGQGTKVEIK
notes: phage display panel; v-regions cloned into silent human IgG1/kappa constant regions; also called NKGB83.002
As for B7, in assay [1], the Kd turned out to be 8.2 nM, the koff came out at 0.000941 s⁻¹ and the kon amounted to 114000 M⁻¹ s⁻¹. Further, in the assay with Cyno NKG2d (NKGW2.001), binding was characterised by a dissociation constant (Kd) of 27.4 nM, the koff worked out at 0.00212 s⁻¹ and the kon was found to be 77600 M⁻¹ s⁻¹.

B8: NG2GB19 (bispecific antibody, human IgG1, lambda)
heavy: not shown
light: SYVLTQPPSVSVAPGQTARITCGGNNIGSKSVHWYQQKAGQAPVLVVYDDSDRPSGIPERFSGSNSGNTATLTISRVEAGDEADYYCQVWDGRSDHVVFGGGTKLTVLGQPKAAPSVTLFPPSSEELQANKATLVCLISDFYPGAVTVAWKADSSPVKAGVETTTPSKQSNNKYAASSYLSLTPEQWKSHRSYSCQVTHEGSTVEKTVAPTECS
For B8, the “IC50 … H929/GFP target cells with PBMC effectors” value with GPRC5d is 0.0199 nM.

B9: NG2GB23 (bispecific antibody, human IgG1, lambda)
heavy: EVQLLESGGGLVQPGGSLRLSCAASGFTFSIYAMTWVRQAPGKGLEWVSIISGSGDHTFYADSVKGRFTISRDNSRNTLYLQMDSLRAEDTAVYYCAKEGKWVQLSHFANWGQGTLVTVSSASTKGPSVFPLAPSSKSTSGGTAALGCLVKDYFPEPVTVSWNSGALTSGVHTFPAVLQSSGLYSLSSVVTVPSSSLGTQTYICNVNHKPSNTKVDKKVEPKSCDKTHTCPPCPAPELLGGPSVFLFPPKPKDTLMISRTPEVTCVVVDVSHEDPEVKFNWYVDGVEVHNAKTKPREEQYNSTYRVVSVLTVLHQDWLNGKEYKCKVSNKALPAPIEKTISKAKGQPREPQVYVYPPSREEMTKNQVSLTCLVKGFYPSDIAVEWESNGQPENNYKTTPPVLDSDGSFALVSKLTVDKSRWQQGNVFSCSVMHEALHNHYTQKSLSLSPGK
light: SYVLTQPPSVSVAPGQTARITCGGNNIGSKSVHWYQQKAGQAPVLVVYDDSDRPSGIPERFSGSNSGNTATLTISRVEAGDEADYYCQVWDGRSDHVVFGGGTKLTVLGQPKAAPSVTLFPPSSEELQANKATLVCLISDFYPGAVTVAWKADSSPVKAGVETTTPSKQSNNKYAASSYLSLTPEQWKSHRSYSCQVTHEGSTVEKTVAPTECS
chain: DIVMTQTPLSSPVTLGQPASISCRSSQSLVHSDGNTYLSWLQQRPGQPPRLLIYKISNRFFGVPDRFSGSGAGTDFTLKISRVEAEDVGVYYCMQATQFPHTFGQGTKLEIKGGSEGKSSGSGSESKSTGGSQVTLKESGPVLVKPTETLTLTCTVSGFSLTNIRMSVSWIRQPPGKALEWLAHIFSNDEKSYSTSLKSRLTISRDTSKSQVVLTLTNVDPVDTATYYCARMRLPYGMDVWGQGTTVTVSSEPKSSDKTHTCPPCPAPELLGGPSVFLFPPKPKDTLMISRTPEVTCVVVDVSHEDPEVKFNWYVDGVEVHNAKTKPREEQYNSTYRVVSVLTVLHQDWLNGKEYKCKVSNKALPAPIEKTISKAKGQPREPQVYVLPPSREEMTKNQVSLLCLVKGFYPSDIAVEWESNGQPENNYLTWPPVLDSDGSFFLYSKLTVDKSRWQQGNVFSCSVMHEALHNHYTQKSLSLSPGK
For B9, in the assay with GPRC5d, the “IC50 … H929/GFP target cells with PBMC effectors” value came to 0.00337 nM.

B10: NG2BB10 (bispecific antibody, human IgG1, lambda)
heavy: EVQLLESGGGLVQPGGSLRLSCAASGFTFSIYAMTWVRQAPGKGLEWVSIISGSGDHTFYADSVKGRFTISRDNSRNTLYLQMDSLRAEDTAVYYCAKEGKWVQLSHFANWGQGTLVTVSSASTKGPSVFPLAPSSKSTSGGTAALGCLVKDYFPEPVTVSWNSGALTSGVHTFPAVLQSSGLYSLSSVVTVPSSSLGTQTYICNVNHKPSNTKVDKKVEPKSCDKTHTCPPCPAPELLGGPSVFLFPPKPKDTLMISRTPEVTCVVVDVSHEDPEVKFNWYVDGVEVHNAKTKPREEQYNSTYRVVSVLTVLHQDWLNGKEYKCKVSNKALPAPIEKTISKAKGQPREPQVYVYPPSREEMTKNQVSLTCLVKGFYPSDIAVEWESNGQPENNYKTTPPVLDSDGSFALVSKLTVDKSRWQQGNVFSCSVMHEALHNHYTQKSLSLSPGK
light: SYVLTQPPSVSVAPGQTARITCGGNNIGSKSVHWYQQKAGQAPVLVVYDDSDRPSGIPERFSGSNSGNTATLTISRVEAGDEADYYCQVWDGRSDHVVFGGGTKLTVLGQPKAAPSVTLFPPSSEELQANKATLVCLISDFYPGAVTVAWKADSSPVKAGVETTTPSKQSNNKYAASSYLSLTPEQWKSHRSYSCQVTHEGSTVEKTVAPTECS
chain: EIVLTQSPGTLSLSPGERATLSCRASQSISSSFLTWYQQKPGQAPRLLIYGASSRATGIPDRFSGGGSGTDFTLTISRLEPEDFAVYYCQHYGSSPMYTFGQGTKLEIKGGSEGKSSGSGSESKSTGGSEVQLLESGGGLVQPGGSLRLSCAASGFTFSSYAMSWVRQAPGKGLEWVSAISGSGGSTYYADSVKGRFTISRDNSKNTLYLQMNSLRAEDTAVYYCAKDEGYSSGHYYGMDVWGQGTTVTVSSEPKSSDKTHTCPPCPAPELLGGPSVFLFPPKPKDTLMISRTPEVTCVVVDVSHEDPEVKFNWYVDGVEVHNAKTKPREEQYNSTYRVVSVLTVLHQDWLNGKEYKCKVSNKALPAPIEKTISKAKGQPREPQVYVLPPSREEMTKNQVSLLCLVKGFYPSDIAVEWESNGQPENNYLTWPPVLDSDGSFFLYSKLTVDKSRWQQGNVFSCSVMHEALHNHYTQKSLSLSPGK
For the molecule B10, the “IC50 … H929/GFP target cells with PBMC effectors” value with BCMA was found to be 0.0209 nM.
